From patent publication US20260077011A1, “INTEGRIN INHIBITORS AS THERAPY FOR OBESITY DISORDERS” (priority 2022, published 2026)
Where no end group is shown, it is not given here.

Legend:
integrin α9β1 [1] = molecular target: T1, integrin α9β1 (Mus musculus, UniProt B8JK39+P09055); assay: FITC-peptide dose-dependent uptake and time curve binding, flow cytometry; conditions: RAW264.7 cells
T1 construct: RAW264.7 cells, a murine macrophage-like cell line, was chosen due to their similarity to macrophages, adhesive and migratory capabilities, and their expression of integrin α9β1; host or cells: RAW264.7
T1 sequence (B8JK39 29-1036): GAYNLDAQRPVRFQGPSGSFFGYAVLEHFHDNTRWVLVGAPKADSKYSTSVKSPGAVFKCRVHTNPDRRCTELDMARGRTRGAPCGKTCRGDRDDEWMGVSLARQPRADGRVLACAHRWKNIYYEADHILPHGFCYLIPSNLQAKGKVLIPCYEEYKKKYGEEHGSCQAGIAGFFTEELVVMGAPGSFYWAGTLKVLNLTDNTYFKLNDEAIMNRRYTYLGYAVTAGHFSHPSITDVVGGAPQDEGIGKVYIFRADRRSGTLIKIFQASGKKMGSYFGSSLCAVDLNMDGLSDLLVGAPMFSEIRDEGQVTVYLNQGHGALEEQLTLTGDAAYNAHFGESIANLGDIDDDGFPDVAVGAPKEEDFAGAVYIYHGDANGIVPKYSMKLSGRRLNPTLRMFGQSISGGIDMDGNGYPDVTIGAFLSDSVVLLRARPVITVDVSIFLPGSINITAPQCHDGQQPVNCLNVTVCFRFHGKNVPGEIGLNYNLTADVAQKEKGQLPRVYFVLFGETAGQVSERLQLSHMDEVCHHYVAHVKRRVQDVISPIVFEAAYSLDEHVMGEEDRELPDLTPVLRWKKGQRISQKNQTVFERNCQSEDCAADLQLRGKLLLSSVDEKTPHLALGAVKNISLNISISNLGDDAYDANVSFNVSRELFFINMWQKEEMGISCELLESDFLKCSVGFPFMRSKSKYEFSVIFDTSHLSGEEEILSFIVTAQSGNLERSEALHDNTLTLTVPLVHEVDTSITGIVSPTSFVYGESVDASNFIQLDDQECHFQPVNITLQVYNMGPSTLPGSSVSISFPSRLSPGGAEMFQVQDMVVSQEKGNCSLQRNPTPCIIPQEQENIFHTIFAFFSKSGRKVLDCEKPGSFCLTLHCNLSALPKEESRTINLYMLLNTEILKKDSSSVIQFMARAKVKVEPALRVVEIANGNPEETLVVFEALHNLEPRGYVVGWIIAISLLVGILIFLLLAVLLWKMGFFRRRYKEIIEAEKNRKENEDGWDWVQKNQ
T1 sequence (P09055 21-798): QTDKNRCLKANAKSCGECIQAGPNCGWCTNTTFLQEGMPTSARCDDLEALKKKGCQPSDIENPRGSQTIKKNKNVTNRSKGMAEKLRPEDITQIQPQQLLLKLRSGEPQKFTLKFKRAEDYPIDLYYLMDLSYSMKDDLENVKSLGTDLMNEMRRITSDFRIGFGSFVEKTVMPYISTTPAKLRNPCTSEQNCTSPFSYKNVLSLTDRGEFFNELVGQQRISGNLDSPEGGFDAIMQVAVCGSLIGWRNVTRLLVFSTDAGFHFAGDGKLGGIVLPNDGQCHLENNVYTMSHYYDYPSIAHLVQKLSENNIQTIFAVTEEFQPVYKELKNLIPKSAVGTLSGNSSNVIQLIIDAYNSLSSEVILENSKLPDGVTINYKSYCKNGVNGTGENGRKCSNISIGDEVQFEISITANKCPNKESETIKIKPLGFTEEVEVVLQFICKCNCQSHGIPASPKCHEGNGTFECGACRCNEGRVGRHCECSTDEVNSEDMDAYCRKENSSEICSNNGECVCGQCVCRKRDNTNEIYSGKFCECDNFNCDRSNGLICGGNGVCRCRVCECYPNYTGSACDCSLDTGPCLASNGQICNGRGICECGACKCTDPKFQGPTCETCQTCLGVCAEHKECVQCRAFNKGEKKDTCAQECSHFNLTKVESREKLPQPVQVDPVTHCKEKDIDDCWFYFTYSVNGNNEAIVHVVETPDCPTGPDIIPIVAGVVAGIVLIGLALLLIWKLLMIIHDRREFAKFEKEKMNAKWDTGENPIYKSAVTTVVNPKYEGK
Procedure: (§1) RAW264.7 cells were incubated in PBS with 2% serum, 0.1% NaN3, and 1 mM EDTA for 20 minutes, collected, and centrifuged at 1800 rpm for 5 min. Next, the cells were suspended in a staining buffer; PBS with 2% serum and 0.1% NaN3 for 15 min on ice. The cells were stained for ITGA9-PE (R&D technologies).
(§2) Cells were also analyzed for the FITC-labeled peptide, which was added to the suspension of RAW264.7 cells in doses of 100 nM, 1 μM, 3 μM, 10 μM, 30 μM, 100 μM, and 300 μM, for one hour. For the time curve binding assay, 3 μM of the FITC-peptide were incubated with cells for 1, 5, 15, 60, 180, and 360 minutes before and analyzed on flow cytometry. For the propidium iodide (PI) assay, cells were incubated with different doses of the peptide for eight and 24 hours, with 10% DMSO serving as a positive control; the cells were then suspended, stained with PI, and analyzed with flow cytometry.
All labeled cells were analyzed by Cytoflex5l and Kaluza software (Beckman Coulter instrument).
In a previous study, a 9 amino-acid long sequence, “EDDMMEVPY”, was identified as the binding site of SVEP1 to integrin α9β1. To examine the effect of the peptide in vitro, RAW264.7 cells, a murine macrophage-like cell line, was chosen due to their similarity to macrophages, adhesive and migratory capabilities, and their expression of integrin α9β1, as shown in the confocal staining of ITGA9 and F4/80, with a seeming membranal expression of both (FIG. 5G). […] To characterize the binding properties of the peptide, a fluorescein isothiocyanate (FITC) labeled peptide was generated. The inventors first performed a dose-dependent uptake test, where the RAW264.7 cells were incubated with increasing peptide concentrations for half an hour and then measured in a flow cytometry assay. […] Next, the cells were pretreated with the peptide for different time durations and were also measured by flow cytometry analysis. The peptide bonded relatively quickly, with 50% of max mean fluorescence intensity presented after 15 minutes and stabilization after three hours (FIG. 5C). […]

ITGA9 = molecular target: T2, ITGA9 (Mus musculus, UniProt B8JK39+P09055); assay: FITC-peptide binding specificity in ITGA9 knockdown (siITGA9) cells; conditions: RAW264.7 cells, FITC-peptide 30 μM, 60 minutes
T2 construct: RAW264.7 cells, a murine macrophage-like cell line, was chosen due to their similarity to macrophages, adhesive and migratory capabilities, and their expression of integrin α9β1; host or cells: RAW264.7
T2 sequence (B8JK39 29-1036): as the sequence (B8JK39 29-1036) above
T2 sequence (P09055 21-798): as the sequence (P09055 21-798) above
Procedure: For siRNA assays, RAW264.7 cells were transfected by using Avalanche®-Everyday Transfection Reagent (Ezbio systems) with siSCR (Santa Cruz) and siITGA9 (Santa Cruz) in DMEM. The transfection solution was added to the cells for 48 hours, and the cells were examined after an additional 48 hours (96 hours in total).
as §1
In a previous study, a 9 amino-acid long sequence, “EDDMMEVPY”, was identified as the binding site of SVEP1 to integrin α9β1. […] The inventors first performed a dose-dependent uptake test, where the RAW264.7 cells were incubated with increasing peptide concentrations for half an hour and then measured in a flow cytometry assay. […] Next, the cells were pretreated with the peptide for different time durations and were also measured by flow cytometry analysis. The peptide bonded relatively quickly, with 50% of max mean fluorescence intensity presented after 15 minutes and stabilization after three hours (FIG. 5C). […]

integrin α9β1 [2] = molecular target: T1, integrin α9β1; assay: Fluorescent live microscopy of FITC-peptide binding with/without unlabeled peptide; conditions: RAW264.7 cells, FITC-peptide 30 μM
Procedure: FIGS. 5A-5M include fluorescent micrographs and graphs showing characterization of the peptide's binding properties. (5A) Representative immunofluorescent confocal images of Raw264.7 cells stained for F4/80 and ITGA9, the dotted line square represents the magnified pictures, scale bar 116 μm. (5B) Flow cytometry quantification of LPS-activated RAW264.7 cells, ITGA9 MFI levels in LPS-activated RAW264.7 cells (4 hours), significance was calculated by unpaired t-test analysis. (5C) Calculated dose-response curve of Peptide-FITC positive RAW264.7 cells, measured in flow cytometry and time curve of the averaged mean fluorescent intensity (MFI) of RAW264.7 cells incubated with the labeled peptide, the MFI was calculated by flow cytometry. (5D) Representative images of RAW264.7 cells incubated with FITC-peptide (30 μM) for 15 and 60 minutes with and without an unlabeled peptide, scale bar=100 μm, and quantification of fluorescence intensity of RAW264.7 cells incubated with FITC-peptide (30 μM) for 15 and 60 minutes, w/o the unlabeled peptide, significance was calculated by using an ordinary one-way ANOVA. […] (5F) ITGA9 fluorescence intensity histogram in Scrambled and ITGA9 KD (Red) Raw264.7 cells incubated with FITC-peptide (30 μM) for 60 minutes, measured by flow cytometry. […]

RAW264.7 cells = format: cell-based
Procedure: as §2
To investigate the effects of the SVEP1-based peptide on the metabolic and proliferative capacity of macrophage cells, RAW264.7 cells were subjected to varying concentrations of the peptide (1, 10, 30, 120 μM). The cells' metabolic activity was assessed using XTT after 3, 8, and 24 hours of peptide treatment. […] To further evaluate cell viability, propidium iodide (PI) staining was conducted after 8 and 24 hours of peptide treatment. […] These findings provide evidence of the peptide's safety profile and its potential suitability for use in macrophage cells.

FITC-peptide: fluorescein isothiocyanate (FITC) labeled peptide of 9 amino acids (EDDMMEVPY) (also: FITC labeled, site not given here)
time to 50% of max mean fluorescence intensity (integrin α9β1 [1]; 3 μM FITC-peptide): 15 min
time to stabilization of mean fluorescence intensity (integrin α9β1 [1]; 3 μM FITC-peptide): three
percentage of Peptide-FITC positive cells (integrin α9β1 [1]; increasing peptide concentrations, half an hour): higher percentage of positive cells in a dose-related manner
FITC-peptide binding (fluorescence intensity) in siITGA9 versus scrambled cells (ITGA9): lower intensity levels
percentage of ITGA9+FITC-peptide+ cells in KD cells (ITGA9; flow cytometry): significantly lower
increase of fluorescence intensity after 60 minutes compared to 15 minutes (integrin α9β1 [2]): 35%
change of fluorescence intensity when co-incubated with the unlabeled peptide (integrin α9β1 [2]; competitive binding): decreased by a similar percentage

EDDMMEVPY [peptide, EDDMMEVPY]
fraction of PI-positive cells compared to the untreated group (RAW264.7 cells): remained unchanged
